According to patent EP4722247A1 (Oricell Therapeutics Co., Ltd., dated 2026):
Like-named read-outs stand apart in the source and are kept apart here.

Key:
[1] = molecular target: T1, Human CD39-His protein (CD9-H52H4, ACRO Biosystems) (human, UniProt P49961 38-478); assay: BLI (Fortebio), antibody on AHC probe, human CD39-His in solution
T1 construct: Purchased protein; also called human CD39-His antigen; human CD39 protein; not shown: His tag
T1 sequence (looked up): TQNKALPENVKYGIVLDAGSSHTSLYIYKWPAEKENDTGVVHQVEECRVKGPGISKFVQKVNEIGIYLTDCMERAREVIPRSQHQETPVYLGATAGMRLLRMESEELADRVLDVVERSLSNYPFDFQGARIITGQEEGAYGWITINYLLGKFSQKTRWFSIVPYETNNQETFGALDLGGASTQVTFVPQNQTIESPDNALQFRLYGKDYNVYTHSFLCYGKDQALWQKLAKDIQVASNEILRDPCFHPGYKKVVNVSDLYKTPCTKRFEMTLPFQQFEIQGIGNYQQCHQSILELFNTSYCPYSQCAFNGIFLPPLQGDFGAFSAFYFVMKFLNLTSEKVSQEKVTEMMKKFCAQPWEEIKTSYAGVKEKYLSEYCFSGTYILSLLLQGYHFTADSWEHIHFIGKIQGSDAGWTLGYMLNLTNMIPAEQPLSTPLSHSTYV

[2] = molecular target: T1, Human CD39-His protein (CD9-H52H4, ACRO …); assay: as above; remark: listed apart in the source

B1: control antibody H5L5 (Patent CN112714768A) (antibody, V domains shown)
VH: QVQLVQSGAEVKKPGASVKVSCKASGYNLKDTFLHWVRQAPGQGLEWMGRIDPANGNIKYDPKFQGRVTITADTSANTAYMELISLRSEDTAVYYCANSPYYYGSGYRIFDVWGQGTTVTVSS
VL: QIVLTQSPATLSLSPGERATLSCSAFSSVNYMHWYQQKPGQAPRLLIYTTSNLASGIPTRFSGSGSGTSYTLTISSLEPEDFAVYYCQQRSTYPFTFGQGTKLEIKR
notes: Anti-CD39 control antibody; also called H5L5 control antibody
Question: What does the source list for B1?
Answer: Kd [1]: 1.28 nM; koff [1]: 0.000408 s⁻¹; kon [1]: 320000 M⁻¹ s⁻¹; Kd [2]: 0.802 nM; koff [2]: 0.000168 s⁻¹; kon [2]: 210000 M⁻¹ s⁻¹
